In patent US20210101954A1 (EUREKA THERAPEUTICS, published 2021):

Biological target: T1, CD19 (human, UniProt P15391 20-556)
T1 construct: whole, on cells; also called CD19 on NALM6, Raji, K562-CD19 and K562-CD19/CD22 cells
T1 sequence (looked up): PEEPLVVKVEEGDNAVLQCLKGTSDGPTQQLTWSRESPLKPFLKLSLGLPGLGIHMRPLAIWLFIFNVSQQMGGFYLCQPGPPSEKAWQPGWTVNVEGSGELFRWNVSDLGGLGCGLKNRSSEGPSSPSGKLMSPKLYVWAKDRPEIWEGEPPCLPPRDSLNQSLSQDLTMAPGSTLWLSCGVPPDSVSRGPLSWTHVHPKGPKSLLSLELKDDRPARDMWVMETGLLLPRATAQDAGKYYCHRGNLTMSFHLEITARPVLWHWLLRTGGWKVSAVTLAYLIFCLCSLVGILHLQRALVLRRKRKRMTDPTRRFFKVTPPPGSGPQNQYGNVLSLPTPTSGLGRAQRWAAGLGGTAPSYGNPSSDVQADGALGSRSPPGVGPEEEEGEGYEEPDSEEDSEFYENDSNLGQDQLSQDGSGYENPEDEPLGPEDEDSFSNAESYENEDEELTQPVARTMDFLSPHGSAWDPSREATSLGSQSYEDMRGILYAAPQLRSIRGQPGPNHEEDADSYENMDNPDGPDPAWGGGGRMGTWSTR
Experiment: told from antigen-specific IFN-γ release of transduced T cells on CD19+ and/or CD22+ cell lines
From the text: Primary T cells were mock-transduced or transduced with a lentiviral vector encoding the anti-CD19 anti-CD22 caTCR-7-2a construct. The transduced T cells were mixed with K562 (CD19 CD22 double negative), K562-CD22 (K562 transduced with CD22), K562-CD19 (K562 transduced with CD19), Raji (which expresses both CD19 and CD22), or Raji CD19 K/O (Raji with CD19 knocked out) cells at an effector-to-target ratio of 2.5:1. T-cells secrete IFN-γ when activated by TCR engagement with target ligand. The cytokine release levels of IFN-γ were measured and used as an indicator of the receptor's signaling potential (the higher levels, the higher the receptor's signaling potential and cytotoxic T cell activity). Cytokine concentrations were measured after 16 hours of co-culture using the Magpix multiplex system (Luminex) with the Bio-plex Pro Human Cytokine 8-plex Assay (BioRad).
T cells expressing the anti-CD19 anti-CD22 caTCR-7-2a construct specifically activated IFN-γ secretion when incubated with K562 expressing either CD19 or CD22 antigens. […] In vitro killing

B1: anti-CD19 anti-CD22 caTCR-7-2a (other)
chain 1: DIQLTQSPSSLSTSVGDRVTITCQASHDIRNYLNWYQQKPGKAPNLLIYAASNLQTGVPSRFSGRGSGTDFTLTISSLQPEDIATYYCQQYDGLPLTFGQGTRLEIKRGGGGSEVQLVQSGAEVKKPGESLKISCKGSGYSFTSYWIGWVRQMPGKGLEWMGIIYPGDSDTRYSPSFQGQVTISADKSISTAYLQWSSLKASDTAMYYCARQVWGWQGGMYPRSNWWYNLDSWGQGTLVTVSSASTKGPSVFPLAPSSKSTSGGTAALGCLVKDYFPEPVTVSWNSGALTSGVHTFPAVLQSSGLYSLSSVVTVPSSSLGTQTYICNVNHKPSNTKVDKRVEPKSCEVKTDSTDHVKPKETENTKQPSKSCHKPKAIVHTEKVNMMSLTVLGLRMLFAKTVAVNFLLTAKLFFL
chain 2: QVQLVESGGGLVQPGGSLRLSCAASGFTFSNYAMSWVRQAPGKGLEWVSSISGSGGSTYYADSVKGRFTISRDTSKNTLYLQMNSLRAEDTAVYYCARYGSAAWMDSWGQGTLVTVSSGGGGSLPVLTQPPSVSVAPGKTARITCGGNNIGSKSVHWYQQKPGQAPVLVVYDDSDRPSGIPERFSGSNSGNTATLTISRVEAGDEADYYCQVWDSSSDYVVFGGGTKLTVLGQPKANPTVTLFPPSSEELQANKATLVCLISDFYPGAVTVAWKADGSPVKAGVETTKPSKQSNNKYAASSYLSLTPEQWKSHRSYSCQVTHEGSTVEKTVAPTECSPIKTDVITMDPKDNCSKDANDTLLLQLTNTSAYYMYLLLLLKSVVYFAIITCCLLRRTAFCCNGEKS
notes: Bispecific chimeric antibody-TCR construct expressed on transduced primary T cells
  binding result: binds
